Reference: patent publication EP4585616A1, “ANTIBODY CAPABLE OF SPECIFICALLY BINDING TO ROR1, […] THEREOF, AND PREPARATION METHOD THEREFOR AND USE THEREOF” (Hefei Institutes of Physical Science, Chinese Academy of …, priority 2022, dated 2024)

Experiments:
MDA-MB-231 cells = assay: In vitro anti-proliferative activity (CCK8); format: cell-based; conditions: Breast cancer, read-out: Proliferation inhibition rate IC50±SD
Protocol: (§1) The cell lines used in this example, including MCF-7, MDA-MB-231, NCI-N87, NCI-H446, HT-29, HCC827, and HCC1187 cells, were purchased from Cobioer Biosciences, Nanjing, and Yuchi Biology, Shanghai, and cultured according to the corresponding instructions. The above cells in logarithmic growth phase were inoculated into 96-well cell culture plates at a density of 250 to 1500 cells per well (depending on the growth rate of different cells) at 150 µL/well, and cultured at 37°C, 5% CO2 for about 3 to 5 hours. Then, mAb001c-vcMMAE at different concentrations were added, each drug concentration in 2 to 4 replicates, as well as the corresponding vehicle control and blank control wells. After 5 to 6 days of action (depending on the cell growth rate, to ensure a sufficient number of cell divisions), the culture medium was removed and CCK8 reaction solution (purchased from MCE, cat# HY-K0301) was added at 100 µL/well. The reaction was carried out at 37°C until the expected color depth. The cell viability (OD450 nm) of each group was measured, and the cell survival rate was calculated according to the following formula: survival rate = (OD drug-OD blank)/(OD control-OD blank) × 100%. The above data were analyzed by GraphPad Prism 5 software, and the IC50 values of the above ROR1 antibody-drug conjugates for different cell lines were calculated.
(§2) The cell lines used in this example, including breast cancer cell lines MCF-7, SK-BR-3, MDA-MB-231, and HCC1187, colorectal cancer cell lines HT-29, SK-CO-1, and COLO-678, lung cancer cell lines HCC827, and H446, ovarian cancer cell line PA-1, gastric cancer cell line NCI-N87, were purchased from Cobioer Biosciences, Nanjing, and Yuchi Biology, Shanghai, and cultured according to the corresponding instructions. The CCK8 method was used to determine the in vitro killing activity of Hu001-2-MMAE, Hu001-3-MMAE, Hu005-44-MMAE, and Hu005-46-MMAE against various cancer cells, as well as UC961-MMAE as a positive reference. The implementation method was referred to Example 13.

MCF-7 cells = assay: In vitro anti-proliferative activity (CCK8); format: cell-based; conditions: Breast cancer, read-out: Proliferation inhibition rate IC50±SD
Protocol: as §1, §2

PA-1 cells = assay: In vitro anti-proliferative activity (CCK8); format: cell-based; conditions: Ovarian cancer, read-out: Proliferation inhibition rate IC50±SD
Protocol: as §1, §2

NCI-N87 cells = assay: In vitro anti-proliferative activity (CCK8); format: cell-based; conditions: Gastric cancer, read-out: Proliferation inhibition rate IC50±SD
Protocol: as §1, §2

SK-CO-1 cells = assay: In vitro anti-proliferative activity (CCK8); format: cell-based; conditions: Bowel cancer, read-out: Proliferation inhibition rate IC50±SD
Protocol: as §1, §2

HT-29 cells = assay: In vitro anti-proliferative activity (CCK8); format: cell-based; conditions: Bowel cancer, read-out: Proliferation inhibition rate IC50±SD
Protocol: as §1, §2

COLO-678 cells = assay: In vitro anti-proliferative activity (CCK8); format: cell-based; conditions: Bowel cancer, read-out: Proliferation inhibition rate IC50±SD
Protocol: as §1, §2

SK-BR-3 cells = assay: In vitro anti-proliferative activity (CCK8); format: cell-based; conditions: Breast cancer, read-out: Proliferation inhibition rate IC50±SD
Protocol: as §1, §2

HCC827 cells = assay: In vitro anti-proliferative activity (CCK8); format: cell-based; conditions: Lung cancer, read-out: Proliferation inhibition rate IC50±SD
Protocol: as §1, §2

HCC1187 cells = assay: In vitro anti-proliferative activity (CCK8); format: cell-based; conditions: Breast cancer, read-out: Proliferation inhibition rate IC50±SD
Protocol: as §1, §2

NCI-H446 cells = assay: In vitro anti-proliferative activity (CCK8); format: cell-based; conditions: Lung cancer, read-out: Proliferation inhibition rate IC50±SD
Protocol: as §1, §2

NCI-N87 tumors = assay: In vivo antitumor activity, subcutaneous tumor model; set-up: species or system immunodeficient mice (NCG or Balb/c-nude); conditions: for Tumor inhibition rate (%): day 21
Protocol: (§3) 200 µL of cell matrix gel suspension containing 5 × 10^6 MDA-MB-231, 1 × 10^7 HCC1187, 1 × 10^7 PA-1, or 5 × 10^6 NCI-N87 was inoculated subcutaneously on the back of immunodeficient mice (NCG or Balb/c-nude). When the tumor volume grew to 100 to 300 mm3, the mice were randomly divided into groups (n=8 to 10) according to the tumor volume and nude mouse weight. The mice were dosed at doses of 5 mg/kg and 2.5 mg/kg once a week through the tail vein for a total of 3 weeks, as well as a group with PBS set as a negative control. The tumor volume and nude mouse weight were measured and recorded 2 to 3 times a week to plot the tumor growth curve. The formula for calculating tumor volume (V) is: V=1/2×a×b2, where a and b represent the length and width of the tumor, respectively.

HCC1187 tumors = assay: as above; set-up: species or system immunodeficient mice (NCG or Balb/c-nude); conditions: for Tumor inhibition rate (%): day 21
Protocol: as §3

PA-1 tumors = assay: as above; set-up: species or system immunodeficient mice (NCG or Balb/c-nude); conditions: PA-1 model; for Tumor inhibition rate (%): day 28
Protocol: as §3

HT-29 tumors = assay: as above; set-up: species or system immunodeficient mice (NCG or Balb/c-nude); conditions: 5 mg/kg and 2.5 mg/kg once a week, tail vein, 3 weeks, result in words
Protocol: as §3, with “5×10^6 MDA-MB-231 and HT-29 were” for “5 × 10^6 MDA-MB-231, 1 × 10^7 HCC1187, 1 × 10^7 PA-1, or 5 × 10^6 NCI-N87 was”, “200 mm^3,” for “300 mm3,”, “(n=10)” for “(n=8 to 10)”, “V=1/2×a×b^2,” for “V=1/2×a×b2,”

MDA-MB-231 tumors = assay: as above; set-up: species or system immunodeficient mice (NCG or Balb/c-nude); conditions: 5 mg/kg once a week, tail vein, 3 weeks, result in words
Protocol: as §3, with “5×10^6 MDA-MB-231 and HT-29 were” for “5 × 10^6 MDA-MB-231, 1 × 10^7 HCC1187, 1 × 10^7 PA-1, or 5 × 10^6 NCI-N87 was”, “200 mm^3,” for “300 mm3,”, “(n=10)” for “(n=8 to 10)”, “V=1/2×a×b^2,” for “V=1/2×a×b2,”
as §3, with “The formula for calculating tumor volume (V) is: V=1/2×a×b2, where a and b represent the length and width of the tumor, respectively.” left out

[1] = 2.5mg/kg once a week x3, tail vein
[2] = 5mg/kg once a week x3, tail vein

B1: UC961-MMAE: UC961 coupled with vcMMAE, prepared as a positive reference, average DAR about 3.95 (conjugate)
VH: QVQLQESGPGLVKPSQTLSLTCTVSGYAFTAYNIHWVRQAPGQGLEWMGSFDPYDGGSSYNQKFKDRLTISKDTSKNQVVLTMTNMDPVDTATYYCARGWYYFDYWGHGTLVTVSS
VL: DIVMTQTPLSLPVTPGEPASISCRASKSISKYLAWYQQKPGQAPRLLIYSGSTLQSGIPPRFSGSGYGTDFTLTINNIESEDAAYYFCQQHDESPYTFGEGTKVEIK
IC50 (MDA-MB-231 cells): 13.5 ± 3.61 nM
IC50 (MCF-7 cells): > 100 nM
IC50 (PA-1 cells): 3.35 ± 0.12 nM
IC50 (NCI-N87 cells): 11.2 ± 2.47 nM
IC50 (SK-CO-1 cells): 5.75 ± 2.46 nM
IC50 (HT-29 cells): 24.6 ± 1.04 nM
IC50 (COLO-678 cells): 19.1 ± 0.78 nM
IC50 (SK-BR-3 cells): > 100 nM
IC50 (HCC827 cells): 45.3 ± 25.7 nM
IC50 (HCC1187 cells): 3 ± 1.5 nM
IC50 (NCI-H446 cells): 11.6 ± 2.52 nM
Tumor volume ± SE (mm^3) on day 21th of administration (NCI-N87 tumors; [1]): 2010.44±266.07 mm^3
Tumor inhibition rate (%) (NCI-N87 tumors; 2.5mg/kg): 19.87%
Tumor volume ± SE (mm^3) on day 21th of administration (NCI-N87 tumors; [2]): 1171.18±130.32 mm^3
Tumor inhibition rate (%) (NCI-N87 tumors; 5mg/kg): 53.32%
Tumor volume ± SE (mm^3) on day 21th of administration (HCC1187 tumors; [1]): 2576.56±461.28 mm^3
Tumor inhibition rate (%) (HCC1187 tumors; 2.5mg/kg): 15.18%
Tumor volume ± SE (mm^3) on day 21th of administration (HCC1187 tumors; [2]): 407.09±69.85 mm^3
Tumor inhibition rate (%) (HCC1187 tumors; 5mg/kg): 86.60%
Tumor volume ± SE (mm^3) on day 28th of administration (PA-1 tumors; [1]): 1032.13±123.29 mm^3
Tumor inhibition rate (%) (PA-1 tumors; 2.5mg/kg): 32.09%
Tumor volume ± SE (mm^3) on day 28th of administration (PA-1 tumors; [2]): 44.67±3.04 mm^3
Tumor inhibition rate (%) (PA-1 tumors; 5mg/kg): 97.06%

B2: mAb001c-vcMMAE: antibody conjugate of chimeric antibody mAb001c coupled with vcMMAE, average DAR about 3.81 (conjugate)
VH: EVRLQQSGPVLVKPGASVKMSCKASGYTFTDYNLHWVKQSHRQSLEWIGYINPNHDGTSYNQKFQGKATLTVDRSSSTAYMEFRSLTSEDSAVYYCARRVRTGTGLDDWGQGTTLTVSS
VL: DVLMTQSPLSLPVSLGDQASISCRSSHNIVHTNGNTYLEWYLQKPGQSPKLLIYKVSNRFSGVPDRFSGSGSGTYFTLTISRVEAEDLGVYYCFQGSRFPYTFGGGTKLEIK
inhibition of the growth of HT-29 tumors (HT-29 tumors): significantly and dose-dependently inhibited
inhibition of the growth of MDA-MB-231 tumors (MDA-MB-231 tumors): completely inhibit
